Experimental findings from article PMC4634408 are described below.

The target of this series is thrombin (human alpha-thrombin as purchased) (Homo sapiens) (UniProt P00734+P00734). The experiment in a line: electrochemical impedance spectroscopy. Conditions: 5'-HS-C6 thiol spacer; EIS with 2.5 mM [Fe(CN)6]3-/4- in phosphate buffer (PB) pH 7.0 with 0.1 M K2SO4; pH 6.6-7.8 and 15-40 C also tested (best pH 7.0, 35 C); standard incubation ….

For the sequence “TTTGGTTGGTGTGGTTGG [ThA thrombin aptamer (15-mer with dT3 spacer)]”, the binding signal was -28 % dRct/Rct0.
